From patent US11680110B2, “Three-dimensional structure-based humanization method” (Hoffmann-La Roche Inc., dated 2023)

T1: recombinant human IL-17 (human, UniProt Q16552)
T1 sequence: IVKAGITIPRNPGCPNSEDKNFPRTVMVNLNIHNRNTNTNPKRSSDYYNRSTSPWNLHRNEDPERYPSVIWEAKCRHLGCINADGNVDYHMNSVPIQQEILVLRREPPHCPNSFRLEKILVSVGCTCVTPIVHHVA


Legend:
recombinant human IL-17 [1] = molecular target: T1, recombinant human IL-17; test: SPR, BIAcore 3000, antibody captured, antigen injected
recombinant human IL-17 [2] = molecular target: T1, recombinant human IL-17
recombinant human IL-17 [3] = molecular target: T1, recombinant human IL-17; test: SPR, BIAcore 3000, antibody captured by anti-human IgG, antigen injected

Row | Kd (recombinant human IL-17 [1]) [pM] | Neutralization in NHDF, IL-6 IC50 (recombinant human IL-17 [2]) [pM] | Kd (recombinant human IL-17 [3]) [pM] | Binder
1 | 50 | 210 | – | murine anti-IL17 antibody (antibody, V domains shown) VH: QVQLKESGPGLVAPSQSLSITCTVSGFSLDSYGVHWVRQPPGKGLEWLVVIWSDGTTTYNSALKSRLSITKDNSKSQVFLKMNSLQTDDTAIYYCARDTHYRLYYYAMDYWGQGTSVTVSS VL: DVVMTQTPLSLPVSLGDQASISCRSSQSLVHSNGDTYFHWYLQKPGQSPKLLIYKVSNRFSGVPDRFSGSGSGTDFTLKINRVEAEDLGVYFCSQTTHAPFTFGSGTKLEIK
2 | – | – | 30 | chimeric anti-IL17 antibody (antibody, V domains shown) VH: QVQLKESGPGLVAPSQSLSITCTVSGFSLDSYGVHWVRQPPGKGLEWLVVIWSDGTTTYNSALKSRLSITKDNSKSQVFLKMNSLQTDDTAIYYCARDTHYRLYYYAMDYWGQGTSVTVSS VL: DVVMTQTPLSLPVSLGDQASISCRSSQSLVHSNGDTYFHWYLQKPGQSPKLLIYKVSNRFSGVPDRFSGSGSGTDFTLKINRVEAEDLGVYFCSQTTHAPFTFGSGTKLEIK
